From publication PMC12033236 come the findings set out here.

Data set [1] concerns the target T1, GST-GS2 (OsGRF4) (Oryza sativa, UniProt Q6ZIK5 1-394).
T1 sequence: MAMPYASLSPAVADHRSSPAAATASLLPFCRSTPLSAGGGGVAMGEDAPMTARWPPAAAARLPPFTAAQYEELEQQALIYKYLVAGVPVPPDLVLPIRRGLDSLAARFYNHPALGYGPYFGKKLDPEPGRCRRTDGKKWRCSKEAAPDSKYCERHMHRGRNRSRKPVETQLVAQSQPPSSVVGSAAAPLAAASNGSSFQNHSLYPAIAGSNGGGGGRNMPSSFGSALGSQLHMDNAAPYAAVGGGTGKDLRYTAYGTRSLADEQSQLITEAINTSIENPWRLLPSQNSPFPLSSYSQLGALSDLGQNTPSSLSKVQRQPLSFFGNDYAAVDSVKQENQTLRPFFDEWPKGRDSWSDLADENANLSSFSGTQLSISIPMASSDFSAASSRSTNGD
As to the kind of experiment: EMSA. (In general: Mobility shift assays separate free from complexed probe on a gel.)

Data set [2] concerns the target T1, GST-GS2 (OsGRF4). Kind of data set: competition.

B1: SUG1 probe A (dsDNA)
DNA 1: CGCACAGTCCACCCAAAGCCGTTGTTA
DNA 2: TAACAACGGCTTTGGGTGGACTGTGCG
Turning to B1, the binding result with GST-GS2 (OsGRF4) [1] is “binds”.

B2: SUG1 unlabeled probe A (competitor) (dsDNA)
DNA 1: CGCACAGTCCACCCAAAGCCGTTGTTA
DNA 2: TAACAACGGCTTTGGGTGGACTGTGCG
Consider B2, for which, in the data set with GST-GS2 (OsGRF4) [2], the binding result is “binds”.

B3: SUG1 probe A-m (dsDNA)
DNA 1: CGCTACGTTCACCCAAAGCCGTTGTTA
DNA 2: TAACAACGGCTTTGGGTGAACGTAGCG
Take B3: the binding result with GST-GS2 (OsGRF4) [1] is “no binding”.
